Like-named read-outs stand apart in the source and are kept apart here. Where no end group is shown, it is not given here. The star is where a group is joined. Ethyl(2-palmitoyloxy) = CCCCCCCCCCCCCCCC(=O)OCC*
B1: 7C(S-Pam) CGRP7-37 B1 (peptide)
peptide: CVTHRLAGLLSRSGGVVKNNFVPTNVGSKAF
modifications: Cys 7 (CGRP numbering; residue 1 of the entry) S-conjugated to 2-(palmitoyloxy)ethyl (S-Pam); C-terminal amide
B2: K24C(S-Pam) CGRP8-37 A5 (peptide)
peptide: VTHRLAGLLSRSGGVVC(Ethyl(2-palmitoyloxy))NNFVPTNVGSKAF-NH2
B3: V8C(S-Pam) CGRP8-37 A4 (peptide)
peptide: C(Ethyl(2-palmitoyloxy))THRLAGLLSRSGGVVKNNFVPTNVGSKAF-NH2

Columns and labels:
[1] = molecular target: T1, AMY1 (CTR/RAMP1) receptor (Homo sapiens, UniProt O60894+P30988); assay: Antagonism of CGRP-induced cAMP accumulation in Cos 7 cells transfected with CTR/RAMP1; format: cell-based; settings: transfected Cos-7 cells, human alpha CGRP, mean ± s.e.m (n), read-out: Antagonist potency (pKB), AMY1 (CTR/RAMP1) (converted)
T1 construct: expressed in transfected cells; host or cells: Cos 7 (African green monkey kidney), transient transfection with polyethylenimine
T1 sequence (P30988 25-474): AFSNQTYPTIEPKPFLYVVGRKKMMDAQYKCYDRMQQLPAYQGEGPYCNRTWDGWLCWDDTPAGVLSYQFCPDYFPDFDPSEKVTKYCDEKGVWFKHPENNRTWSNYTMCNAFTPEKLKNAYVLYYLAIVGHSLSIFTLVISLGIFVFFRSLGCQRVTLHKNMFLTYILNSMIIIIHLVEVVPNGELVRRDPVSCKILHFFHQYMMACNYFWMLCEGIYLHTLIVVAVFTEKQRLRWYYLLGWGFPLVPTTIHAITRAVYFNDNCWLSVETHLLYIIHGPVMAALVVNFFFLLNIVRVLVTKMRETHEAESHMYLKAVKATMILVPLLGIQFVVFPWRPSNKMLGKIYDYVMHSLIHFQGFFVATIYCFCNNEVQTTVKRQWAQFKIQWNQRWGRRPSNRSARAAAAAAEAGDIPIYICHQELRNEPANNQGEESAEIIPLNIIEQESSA
T1 sequence (O60894 27-148): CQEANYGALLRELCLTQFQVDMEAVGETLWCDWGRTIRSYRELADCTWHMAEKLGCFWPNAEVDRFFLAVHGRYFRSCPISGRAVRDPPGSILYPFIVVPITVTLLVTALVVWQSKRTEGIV
Description: (§1) 1. Antagonism of CGRP-Induced cAMP Accumulation in Transfected CGRP Receptor Expressing Cells
(§2) Simian vacuolating virus 40 (SV40) transformed African green monkey kidney (Cos 7) cells were transiently transfected with calcitonin receptor-like receptor (CLR) or calcitonin receptor (CTR) together with receptor activity-modifying protein 1 (RAMP1) to form CGRP or AMY1(a) receptors.
(§3) On the day of experimentation, media was replaced with 50 μl DMEM containing 1 mM isobutylmethylxanthine and 0.1% bovine serum albumin for 30 min. All peptides were diluted in assay medium and after the 30 min incubation, 25 μl antagonists were added, followed immediately by 25 μl human alpha CGRP (hαCGRP), giving a total assay volume of 100 μl. Once human alpha CGRP was added, the cells were incubated at 37° C. for 15 minutes. The media was then aspirated from the wells and reactions terminated with ice-cold absolute ethanol. Ethanol was evaporated to dryness and cAMP was quantified using a commercially-available assay (LANCE Perkin Elmer).
(§4) 3. Calculation of Antagonist Potency Values
(§5) Data were analysed using Graphpad Prism 7. Antagonist pKB or pA2 values were obtained using Global Schild analysis. […] Where a single concentration of antagonist was used, pA2 values are used to describe antagonist potency.

[2] = molecular target: T2, CGRP (CLR/RAMP1) receptor (Homo sapiens, UniProt O60894+Q16602); assay: Antagonism of CGRP-induced cAMP accumulation in Cos 7 cells transfected with CLR/RAMP1; format: cell-based
T2 construct: expressed in transfected cells; host or cells: Cos 7 (African green monkey kidney), transient transfection with polyethylenimine
T2 sequence (Q16602 23-461): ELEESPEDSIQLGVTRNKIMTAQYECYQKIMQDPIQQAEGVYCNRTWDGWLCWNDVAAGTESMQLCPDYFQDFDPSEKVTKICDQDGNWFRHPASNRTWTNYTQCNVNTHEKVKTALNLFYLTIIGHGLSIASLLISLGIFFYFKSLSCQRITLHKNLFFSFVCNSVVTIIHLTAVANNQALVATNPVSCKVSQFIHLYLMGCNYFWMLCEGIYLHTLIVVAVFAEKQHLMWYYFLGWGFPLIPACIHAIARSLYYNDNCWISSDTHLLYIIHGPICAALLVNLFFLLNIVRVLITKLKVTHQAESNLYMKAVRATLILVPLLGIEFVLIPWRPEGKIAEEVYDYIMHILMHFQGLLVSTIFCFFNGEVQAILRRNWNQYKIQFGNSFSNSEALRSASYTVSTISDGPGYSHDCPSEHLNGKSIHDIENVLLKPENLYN
T2 sequence (O60894 27-148): as the sequence (O60894 27-148) above
Description: as §1, §2, §3, §4, §5

[3] = molecular target: T1, AMY1 (CTR/RAMP1) receptor; assay: cAMP assay with antagonist pre-incubation, with or without wash step, CTR/RAMP1 transfected Cos 7 cells; format: cell-based; settings: 15 min antagonist pre-incubation, mean ± s.e.m (n)
Description: Cos 7 cells were cultured in Dulbecco's Modified Eagle Medium (DMEM) supplemented with 8% heat inactivated fetal bovine serum and kept in a 37° C. humidified 95% air/5% CO2 incubator. […] In a different specific experimental paradigm, media was replaced with DMEM containing 1 mM isobutylmethylxanthine and 0.1% bovine serum albumin for 30 min. After this period, 25 μl of antagonist or media was added for 15 minutes at 37° C. as a pre-incubation period. After pre-incubation, the antagonist or media were aspirated from some wells, washed once with phosphate-buffered saline and replaced with 75 μl new media. The other wells with antagonist were not washed. […] Once human alpha CGRP was added, the cells were incubated at 37° C. for 15 minutes. The media was then aspirated from the wells and reactions terminated with ice-cold absolute ethanol. […] Calculation of Antagonist Potency Values Data were analysed using Graphpad Prism 7. Antagonist pKB or pA2 values were obtained using Global Schild analysis. […] Where a single concentration of antagonist was used, pA2 values are used to describe antagonist potency.

[4] = molecular target: T3, CGRP receptor endogenously expressed in SK-N-MC cells (Homo sapiens, UniProt O60894+Q16602); assay: Antagonism of CGRP-induced cAMP accumulation in SK-N-MC cells; format: cell-based
T3 construct: SK-N-MC are human neuroblastoma-derived cells that endogenously express a CGRP receptor; endogenous in cells; host or cells: SK-N-MC human neuroblastoma-derived cells
T3 sequence (Q16602 23-461): as the sequence (Q16602 23-461) above
T3 sequence (O60894 27-148): as the sequence (O60894 27-148) above
Description: The cells were cultured in DMEM supplemented with 8% heat inactivated fetal bovine serum and kept in a 37° C. humidified 95% air/5% CO2 incubator. […] On the day of experimentation, media was replaced with DMEM containing 1 mM isobutylmethylxanthine and 0.1% bovine serum albumin for 30 min. After this period antagonists were added, followed by human alpha CGRP. Once human alpha CGRP was added, the cells were incubated at 37° C. for 15 minutes. The media was then aspirated from the wells and reactions terminated with ice-cold absolute ethanol. […] Calculation of Antagonist Potency Values Data were analysed using Graphpad Prism 7. Antagonist pKB or pA2 values were obtained using Global Schild analysis. […] Where a single concentration of antagonist was used, pA2 values are used to describe antagonist potency.

[5] = molecular target: T4, human CGRP receptor (CLR/RAMP1), transiently transfected in Cos 7 cells (human, UniProt Q16602 23-461; O60894 27-148); assay: cell-based or functional assay
T4 sequence (Q16602 23-461, chain 1 of 2): as the sequence (Q16602 23-461) above
T4 sequence (O60894 27-148, chain 2 of 2): as the sequence (O60894 27-148) above

[6] = molecular target: T4, human CGRP receptor (CLR/RAMP1), …; assay: cell-based or functional assay; remark: listed apart in the source
[7] = molecular target: T4, human CGRP receptor (CLR/RAMP1), …; assay: cell-based or functional assay; remark: listed apart in the source
[8] = molecular target: CGRP receptor endogenously expressed by SK-N-MC human neuroblastoma-derived cells (human, UniProt Q16602 23-461; O60894 27-148); assay: cell-based or functional assay
CGRP receptor endogenously expressed by SK-N-MC human neuroblastoma-derived cells, sequence (Q16602 23-461, chain 1 of 2): as the sequence (Q16602 23-461) above
CGRP receptor endogenously expressed by SK-N-MC human neuroblastoma-derived cells, sequence (O60894 27-148, chain 2 of 2): as the sequence (O60894 27-148) above

[9] = molecular target: human AMY1(a) receptor (CTR/RAMP1), transiently transfected in Cos 7 cells (human), P30988; assay: cell-based or functional assay
human AMY1(a) receptor (CTR/RAMP1), transiently transfected in Cos 7 cells (human), P30988, sequence (P30988 25-474, chain 1 of 2): as the sequence (P30988 25-474) above
human AMY1(a) receptor (CTR/RAMP1), transiently transfected in Cos 7 cells (human), P30988, sequence (O60894 27-148, chain 2 of 2, further chain): as the sequence (O60894 27-148) above

Row | Molecule | A2, with wash (cAMP assay, Cos 7) [5] | A2, without wash (cAMP assay, Cos 7) [5] | antagonist potency pA2, with wash (cAMP assay, Cos 7) [5] | antagonist potency pA2, without wash (cAMP assay, Cos 7) [5] | Fold change reduction in pA2 with wash [6] | A2 (antilog of the negative pA2; cAMP assay, Cos 7) [7] | Selectivity (fold-difference CGRP vs. AMY1) [7] | antagonist potency pKB (cAMP assay, Cos 7) [7] | A2 (antilog of the negative pA2; cAMP assay, SK-N-MC) [8] | antagonist potency pA2 (cAMP assay, SK-N-MC) [8] | A2 (antilog of the negative pA2; cAMP assay, Cos 7) [9] | A2, with wash (cAMP assay, Cos 7) [9] | A2, without wash (cAMP assay, Cos 7) [9] | Fold change reduction in pA2 with wash [9] | antagonist potency pA2, with wash (cAMP assay, Cos 7) [9] | antagonist potency pA2, without wash (cAMP assay, Cos 7) [9] | antagonist potency pKB (cAMP assay, Cos 7) [9] | other results
1 | CCCCCCCCCCCCCCCC(=O)OCCSC[C@H](N)C(=O)N[C@H](C(=O)N[C@@H](Cc1c[nH]cn1)C(=O)N[C@@H](CCCNC(=N)N)C(=O)N[C@@H](CC(C)C)C(=O)N[C@@H](C)C(=O)NCC(=O)N[C@@H](CC(C)C)C(=O)N[C@@H](CC(C)C)C(=O)N[C@@H](CO)C(=O)N[C@@H](CCCNC(=N)N)C(=O)N[C@@H](CO)C(=O)NCC(=O)NCC(=O)N[C@H](C(=O)N[C@H](C(=O)N[C@@H](CCCCN)C(=O)N[C@@H](CC(N)=O)C(=O)N[C@@H](CC(N)=O)C(=O)N[C@@H](Cc1ccccc1)C(=O)N[C@H](C(=O)N1CCC[C@H]1C(=O)N[C@H](C(=O)N[C@@H](CC(N)=O)C(=O)N[C@H](C(=O)NCC(=O)N[C@@H](CO)C(=O)N[C@@H](CCCCN)C(=O)N[C@@H](C)C(=O)N[C@@H](Cc1ccccc1)C(N)=O)C(C)C)[C@@H](C)O)C(C)C)C(C)C)C(C)C)[C@@H](C)O [A4, V8C(S-Pam) CGRP8-37] |  |  |  |  |  |  |  |  |  |  |  |  |  |  |  |  |  | Kb [1]: 7080 pM; Selectivity (fold-difference CGRP vs. AMY1) ([2]; CGRP (CLR/RAMP1) vs. AMY1 (CTR/RAMP1), Cos-7 cells): 12 fold; Kb ([2]; transfected Cos-7 cells, cAMP, human alpha CGRP, mean ± s.e.m (n), Global Schild analysis, read-out: Antagonist potency (pKB), CGRP (CLR/RAMP1) (converted)): 589 pM; Kb ([3]; not washed, read-out: pA2, AMY1 (CTR/RAMP1), Without wash (converted)): 1050 pM; Kb ([3]; washed once with PBS, read-out: pA2, AMY1 (CTR/RAMP1), With wash (converted)): 2880 pM; Kb ([4]; human alpha CGRP, mean ± s.e.m (n), read-out: SK-N-MC (pA2) (converted)): 17.4 pM; Kb ([4]; read-out: A2 (antilog of the negative pA2), SK-N-MC (converted)): 20 pM
2 | B1 | 0.46 nM | 0.14 nM | 9.34 | 9.86 | 3.3 fold | 1.7 nM | < 2 fold | 8.78 | 0.02 nM | 10.7 |  |  |  |  |  |  |  | 
3 | B2 | 0.74 nM | 0.05 nM | 9.13 | 10.3 | 14 fold | 6.8 nM | -4 fold | 8.17 | 0.09 nM | 10.1 | 1.8 nM | 3.5 nM | 0.37 nM | 9.6 fold | 8.45 | 9.43 | 8.75 | 
4 | B3 | 3.3 nM | 0.15 nM | 8.48 | 9.82 | 22 fold | 0.59 nM | 12 fold | 9.23 | 0.02 nM | 10.8 | 7.1 nM | 2.9 nM | 1 nM | 2.8 fold | 8.54 | 8.98 | 8.15 | 
